FireProtDB (doi:10.1016/0022-2836(74)90188-0)

Conditions: Bos taurus, Thermal, DSC, glycine 0.04 M, reversible: yes(>90%)

Chain of Cytochrome c wild type, P62894 (P62894 whole entry): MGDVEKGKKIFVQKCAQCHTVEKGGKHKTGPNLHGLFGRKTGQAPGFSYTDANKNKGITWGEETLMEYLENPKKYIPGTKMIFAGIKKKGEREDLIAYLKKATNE

In the case of Cytochrome c wild type, P62894, the Tm (pH 2.81) is reported as 52.5 °C, the “unfolding enthalpy (calorimetric)” value (pH 2.81) is reported as 60 kcal/mol and the Tm (pH 2.92) is reported as 54 °C. The “heat capacity change of unfolding” value (pH 2.92) was 1.43 kcal/mol/K, the “unfolding enthalpy (calorimetric)” value (pH 2.92) was 65 kcal/mol and the Tm (pH 3.05) was 59 °C. For the same substance, the “heat capacity change of unfolding” value (pH 3.05) was 1.48 kcal/mol/K, the “unfolding enthalpy (calorimetric)” value (pH 3.05) was 70.3 kcal/mol and the Tm (pH 3.12) was 61 °C. For the same substance, the “heat capacity change of unfolding” value (pH 3.12) was 1.53 kcal/mol/K, the “unfolding enthalpy (calorimetric)” value (pH 3.12) was 74.3 kcal/mol and the Tm (pH 3.18) was 62 °C. For the same substance, the “heat capacity change of unfolding” value (pH 3.18) was 1.36 kcal/mol/K, the “unfolding enthalpy (calorimetric)” value (pH 3.18) was 77 kcal/mol and the Tm (pH 3.4) was 66 °C. For the same substance, the “heat capacity change of unfolding” value (pH 3.4) was 1.48 kcal/mol/K, the “unfolding enthalpy (calorimetric)” value (pH 3.4) was 84.6 kcal/mol and the Tm (pH 3.75) was 70 °C. For the same substance, the “heat capacity change of unfolding” value (pH 3.75) was 1.7 kcal/mol/K, the “unfolding enthalpy (calorimetric)” value (pH 3.75) was 93.5 kcal/mol and the Tm (pH 3.94) was 72 °C. The “heat capacity change of unfolding” value (pH 3.94) was 1.65 kcal/mol/K, the “unfolding enthalpy (calorimetric)” value (pH 3.94) was 96.3 kcal/mol and the Tm (pH 4.52) was 77 °C. The “heat capacity change of unfolding” value (pH 4.52) was 1.48 kcal/mol/K, the “unfolding enthalpy (calorimetric)” value (pH 4.52) was 103 kcal/mol and the Tm (pH 4.83) was 78 °C. The “heat capacity change of unfolding” value (pH 4.83) was 1.53 kcal/mol/K and the “unfolding enthalpy (calorimetric)” value (pH 4.83) was 107 kcal/mol.
